± gives the uncertainty stated by the source.
assay: amyloid nucleation score (Sup35N fusion, yeast selection) (log enrichment); library NNK2; higher = more nucleation; inactive = no reads after selection
Outline: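 Random libraries were run with three technical output replicates. In each, psi-negative yeast expressing Sup35N fused to peptides of 20 random codons were induced 24 hours with 100 μM copper sulfate and grown 7 days at 30°C on medium lacking adenine and uracil, and input and output plasmid inserts were Illumina-sequenced. The nucleation score is the DiMSum log enrichment of output over input reads, centred on the mode score of non-aggregating sequences, and sequences under 100 input reads were excluded.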

Q: For DKFMLVSCVYSDNLLVIYSG, which amyloid nucleation score is on record?
A: The amyloid nucleation score was “inactive”.

Q: With VCFVM as the substance, how does the amyloid nucleation score read?
A: The amyloid nucleation score was -0.016 ± 0.79.

Q: With INLRMCGFYTSFDLNWRRKW as the substance, how does the amyloid nucleation score read?
A: The amyloid nucleation score was 4.981 ± 0.049.

Q: For SCYDVCPLCSHCRIGTKM, which amyloid nucleation score is on record?
A: The amyloid nucleation score was 1.92 ± 0.2.

Q: With FLNFIFELSSWMDF as the substance, how does the amyloid nucleation score read?
A: Its amyloid nucleation score is -1.6 ± 1.1.

Q: With AREHPKY as the substance, how does the amyloid nucleation score read?
A: The amyloid nucleation score was 0.645 ± 0.14.

Q: For VLYVGWFRAKDNIVFLTYGC, which amyloid nucleation score is on record?
A: Its amyloid nucleation score is -0.158 ± 0.61.

Q: Which amyloid nucleation score does the source give for NWVMVLGLGVCKSIWLLPMV here?
A: The amyloid nucleation score was -0.572 ± 0.76.

Q: For PICHLRGGSISRRSNFIQGC, which amyloid nucleation score is on record?
A: Its amyloid nucleation score is -1.12 ± 0.76.

Q: For SMCGSNAFLDTDRDVRHDDF, which amyloid nucleation score is on record?
A: Its amyloid nucleation score is -1.05 ± 0.78.

Q: Which amyloid nucleation score does the source give for PLRVRNNGGTVDKFLLRVFE here?
A: The amyloid nucleation score was 0.489 ± 0.4.

Q: Which amyloid nucleation score does the source give for ECSFVMKY here?
A: Its amyloid nucleation score is 3.41 ± 0.074.

Q: With NIKSYVGYRNHFRVSLV as the substance, how does the amyloid nucleation score read?
A: The amyloid nucleation score was “inactive”.

Q: For FSLICIKIHEKGWQGEG, which amyloid nucleation score is on record?
A: Its amyloid nucleation score is 4.17 ± 0.065.

Q: With EKAGGPWLDHNRRQCQCEVA as the substance, how does the amyloid nucleation score read?
A: The amyloid nucleation score was 0.634 ± 0.45.

Q: With HVYIGVNLKRENKTHQTSSV as the substance, how does the amyloid nucleation score read?
A: Its amyloid nucleation score is 4.77 ± 0.064.

Q: With NSAIVLHTSYIHFVFYSVFY as the substance, how does the amyloid nucleation score read?
A: The amyloid nucleation score was -0.403 ± 0.63.

Q: For YQGMFKFRRFDNVSVVHAMR, which amyloid nucleation score is on record?
A: The amyloid nucleation score was -0.359 ± 0.76.

Q: With GRIILTLFNYYT as the substance, how does the amyloid nucleation score read?
A: The amyloid nucleation score was 6.878 ± 0.062.

Q: For SQYFYMFWMSRATITNTIMP, which amyloid nucleation score is on record?
A: Its amyloid nucleation score is -0.217 ± 0.74.

Q: For NKSVQARDPTV, which amyloid nucleation score is on record?
A: Its amyloid nucleation score is “inactive”.

Q: Which amyloid nucleation score does the source give for KFFMDYNGILDFWFRTREKD here?
A: Its amyloid nucleation score is -0.375 ± 0.74.

Q: For LVMYGEDDD, which amyloid nucleation score is on record?
A: The amyloid nucleation score was -0.025 ± 1.1.

Q: Which amyloid nucleation score does the source give for SAIRLMGG here?
A: Its amyloid nucleation score is 5.378 ± 0.048.

Q: Which amyloid nucleation score does the source give for LSIQLTEHA here?
A: Its amyloid nucleation score is 2.13 ± 0.079.

Q: For VDDWSADIMKGDRVLYS, which amyloid nucleation score is on record?
A: The amyloid nucleation score was “inactive”.

Q: With TKICMASHATVFALYVYCSL as the substance, how does the amyloid nucleation score read?
A: The amyloid nucleation score was “inactive”.

Q: Which amyloid nucleation score does the source give for VNFNQSRCVDYVGILVIGG here?
A: The amyloid nucleation score was -0.248 ± 0.28.

Q: For FHMRFMMVFIRLKTRTKLIL, which amyloid nucleation score is on record?
A: Its amyloid nucleation score is -0.797 ± 0.42.

Q: For SKMICPHYK, which amyloid nucleation score is on record?
A: The amyloid nucleation score was 5.69 ± 0.071.

Q: With RPRILYLLLFLYNHFLTSYK as the substance, how does the amyloid nucleation score read?
A: The amyloid nucleation score was -1.08 ± 1.

Q: Which amyloid nucleation score does the source give for HYFEIVA here?
A: The amyloid nucleation score was -0.315 ± 0.45.

Q: Which amyloid nucleation score does the source give for WSNPTKLFHELAVQLNYTMP here?
A: The amyloid nucleation score was 0.903 ± 0.74.

Q: With APTQDTLEFRHISFEVVWRT as the substance, how does the amyloid nucleation score read?
A: The amyloid nucleation score was 2.84 ± 0.18.

Q: Which amyloid nucleation score does the source give for NSLVYCKKPSLPFHHGCK here?
A: The amyloid nucleation score was -0.032 ± 0.42.

Q: Which amyloid nucleation score does the source give for HVTRVSVLQVLELHSTMTGV here?
A: Its amyloid nucleation score is 4.09 ± 0.09.

Q: With KWFLGCRVDHRMRVRMCLQ as the substance, how does the amyloid nucleation score read?
A: The amyloid nucleation score was -0.292 ± 0.54.

Q: For CNTRRLISMRI, which amyloid nucleation score is on record?
A: Its amyloid nucleation score is -0.234 ± 0.65.

Q: For LMHSQCSFSNELYVDSEARG, which amyloid nucleation score is on record?
A: Its amyloid nucleation score is 0.093 ± 0.38.

Q: For MCRRFNFIIEVVVNASMTIR, which amyloid nucleation score is on record?
A: Its amyloid nucleation score is -1.31 ± 1.

Q: For FSSSFVVWALYPVTFHLTRS, which amyloid nucleation score is on record?
A: The amyloid nucleation score was 0.112 ± 0.4.

Q: With NHRETVFVVIASRSWHARFG as the substance, how does the amyloid nucleation score read?
A: Its amyloid nucleation score is -0.19 ± 1.

Q: Which amyloid nucleation score does the source give for DTAHTNISECRAMVRMYRSR here?
A: Its amyloid nucleation score is -0.755 ± 1.1.

Q: Which amyloid nucleation score does the source give for GSSYNGNTRLTHVGRSVSVR here?
A: The amyloid nucleation score was -0.632 ± 0.63.

Q: Which amyloid nucleation score does the source give for WRRTTYYGRDRGQVLGNNAG here?
A: Its amyloid nucleation score is -0.009 ± 0.36.

Q: Which amyloid nucleation score does the source give for TTYSRS here?
A: The amyloid nucleation score was -1.26 ± 0.62.

Q: For ILISVRNYIKSEKSRNSYHK, which amyloid nucleation score is on record?
A: Its amyloid nucleation score is 7.673 ± 0.03.

Q: With YGSDALYWLVWVYV as the substance, how does the amyloid nucleation score read?
A: The amyloid nucleation score was -0.016 ± 0.48.

Q: Which amyloid nucleation score does the source give for MGCDGVSVLRWCTHIELGME here?
A: The amyloid nucleation score was -0.782 ± 0.31.

Q: For VATWGDQVLRMRWAALRLCV, which amyloid nucleation score is on record?
A: The amyloid nucleation score was 5.96 ± 0.079.

Q: Which amyloid nucleation score does the source give for MRPMIFPCYAMSSVSMLTSR here?
A: Its amyloid nucleation score is 0.72 ± 0.27.

Q: Which amyloid nucleation score does the source give for KGAMA here?
A: Its amyloid nucleation score is 0.539 ± 0.39.

Q: Which amyloid nucleation score does the source give for NSLYRGRRHRAYDINVSFVK here?
A: Its amyloid nucleation score is -0.392 ± 0.48.

Q: For ALGENAPILDRWLIGSLVFL, which amyloid nucleation score is on record?
A: Its amyloid nucleation score is 1.77 ± 0.39.

Q: For MGPKSRFRSTRNGVKYL, which amyloid nucleation score is on record?
A: Its amyloid nucleation score is -0.571 ± 0.64.

Q: With SLWTNTSWSAVVQNNWYGTF as the substance, how does the amyloid nucleation score read?
A: The amyloid nucleation score was 6.94 ± 0.054.

Q: For GTSDSWTNVGRHYLKGVRDG, which amyloid nucleation score is on record?
A: The amyloid nucleation score was -1.08 ± 0.55.

Q: For WTDSHSKMRNFRPG, which amyloid nucleation score is on record?
A: The amyloid nucleation score was -0.259 ± 0.49.

Q: Which amyloid nucleation score does the source give for RMFVLLNRPNGLSCKGMFRG here?
A: Its amyloid nucleation score is 0.446 ± 0.64.

Q: With GKTYLDKLMGGLHRQDPGTR as the substance, how does the amyloid nucleation score read?
A: Its amyloid nucleation score is 1.28 ± 0.53.

Q: With VNNGLPDCFSLRYAVHPMRL as the substance, how does the amyloid nucleation score read?
A: The amyloid nucleation score was -0.526 ± 0.64.

Q: Which amyloid nucleation score does the source give for LVSQLPVDFMVTFDILTVEI here?
A: Its amyloid nucleation score is -0.184 ± 1.1.

Q: Which amyloid nucleation score does the source give for VHTARLTWDLGYSVRCYYWT here?
A: Its amyloid nucleation score is 6.47 ± 0.074.

Q: With IPFASLNEFTSATY as the substance, how does the amyloid nucleation score read?
A: Its amyloid nucleation score is 3.07 ± 0.1.

Q: Which amyloid nucleation score does the source give for YCTSRVTTRSFISDCLTWIR here?
A: Its amyloid nucleation score is 1.97 ± 0.069.

Q: For LVCELYI, which amyloid nucleation score is on record?
A: The amyloid nucleation score was -0.171 ± 0.39.

Q: With YVNDIRSKNPALEHEGDL as the substance, how does the amyloid nucleation score read?
A: The amyloid nucleation score was -0.58 ± 0.55.

Q: Which amyloid nucleation score does the source give for PDAIVSGVEHAKGTSDAALS here?
A: Its amyloid nucleation score is -0.15 ± 0.28.

Q: Which amyloid nucleation score does the source give for CYYMCAYRGVAK here?
A: Its amyloid nucleation score is 0.637 ± 0.36.

Q: Which amyloid nucleation score does the source give for IGSVGTPWE here?
A: The amyloid nucleation score was -0.042 ± 0.45.

Q: Which amyloid nucleation score does the source give for AGLLPENYFSCILGINVVIF here?
A: The amyloid nucleation score was 3.13 ± 0.065.

Q: For SIFLREDVVFSDLLRWFR, which amyloid nucleation score is on record?
A: Its amyloid nucleation score is 5.572 ± 0.045.

Q: For WSIVGLGSRCWREVASCSTV, which amyloid nucleation score is on record?
A: The amyloid nucleation score was 0.636 ± 0.49.

Q: Which amyloid nucleation score does the source give for FLYLIMKGPLAVKYCIKSLG here?
A: The amyloid nucleation score was -0.545 ± 0.76.

Q: With LLADAVMWFTMGSEDHDCY as the substance, how does the amyloid nucleation score read?
A: The amyloid nucleation score was -0.531 ± 0.44.

Q: For GLRTK, which amyloid nucleation score is on record?
A: The amyloid nucleation score was 0.622 ± 0.41.

Q: With MLVVLWQSARRSVTIIKVRT as the substance, how does the amyloid nucleation score read?
A: Its amyloid nucleation score is 0.546 ± 0.5.

Q: For WYRPTSYRRKHKGDISLDLG, which amyloid nucleation score is on record?
A: The amyloid nucleation score was -0.226 ± 1.1.

Q: Which amyloid nucleation score does the source give for VWIAKKGQRSRFQLRSGMCA here?
A: The amyloid nucleation score was 0.641 ± 0.74.

Q: Which amyloid nucleation score does the source give for NRDVVKKLPGPSSFVMT here?
A: The amyloid nucleation score was -0.552 ± 0.44.

Q: With FSCHWAIMTRSGKVEVCNNQ as the substance, how does the amyloid nucleation score read?
A: Its amyloid nucleation score is 5.47 ± 0.069.

Q: Which amyloid nucleation score does the source give for WFCVRVA here?
A: Its amyloid nucleation score is -0.13 ± 0.37.

Q: Which amyloid nucleation score does the source give for SYVEHTMILDMRPTCHTLPH here?
A: The amyloid nucleation score was 5.08 ± 0.11.

Q: For VLGGLCSVFGDDGTAYYSSS, which amyloid nucleation score is on record?
A: The amyloid nucleation score was 0.417 ± 0.36.

Q: Which amyloid nucleation score does the source give for DTMKFFSSLSMNGENVGLGY here?
A: The amyloid nucleation score was “inactive”.

Q: For RIGTFWRGQDKLDVFKYGVV, which amyloid nucleation score is on record?
A: Its amyloid nucleation score is -0.236 ± 0.37.
